Measured values as given in patent publication US20230365681A1 (CELGENE, published 2023).
Where a chain is given by its changes, count along the chain named.

What was measured:
human CD47 on cells [1] = molecular target: T1, human CD47 on cells (human, UniProt Q08722 19-323); experiment: cell-based or functional assay
[2] = molecular target: FcγR3A (F176) recombinant protein (human, UniProt P08637 17-208); experiment: recombinant protein, compared with control anti-RSV IgG1 antibody (p value 0.0045)
FcγR3A (F176) recombinant protein, sequence (P08637 17-208): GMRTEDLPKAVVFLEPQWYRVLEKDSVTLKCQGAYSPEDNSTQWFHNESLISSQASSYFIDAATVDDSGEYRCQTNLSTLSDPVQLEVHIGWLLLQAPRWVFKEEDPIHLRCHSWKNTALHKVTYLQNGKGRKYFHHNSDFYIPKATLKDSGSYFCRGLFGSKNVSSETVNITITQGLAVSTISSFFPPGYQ

human CD20 = molecular target: T2, human CD20 (human, UniProt P11836 1-297, limits assumed); experiment: sandwich SPR
T2 sequence (looked up): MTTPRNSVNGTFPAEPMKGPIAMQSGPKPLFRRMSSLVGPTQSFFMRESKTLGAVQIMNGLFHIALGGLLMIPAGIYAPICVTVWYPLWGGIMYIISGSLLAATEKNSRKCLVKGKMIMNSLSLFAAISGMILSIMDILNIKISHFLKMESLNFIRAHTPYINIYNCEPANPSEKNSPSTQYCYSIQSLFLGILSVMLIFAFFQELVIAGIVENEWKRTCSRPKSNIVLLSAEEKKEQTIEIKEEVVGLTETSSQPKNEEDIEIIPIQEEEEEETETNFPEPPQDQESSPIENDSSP

human CD47 on cells [3] = molecular target: T1, human CD47 on cells; experiment: blocking of human SIRPα binding to Raji cells, SIRPα at saturating concentration, secondary antibody detection; competitor SIRPα (repeated in paragraph 145 as average EC50); Raji cells (CD20+/CD47+); blocking of SIRPα binding
[4] = molecular target: T3, FcγR2B on engineered HEK293 cells (UniProt P31994 43-310); experiment: TR-FRET on FcγR-engineered HEK293 cells
T3 construct: whole, on cells; also called FcγR2B cell line
T3 sequence (looked up): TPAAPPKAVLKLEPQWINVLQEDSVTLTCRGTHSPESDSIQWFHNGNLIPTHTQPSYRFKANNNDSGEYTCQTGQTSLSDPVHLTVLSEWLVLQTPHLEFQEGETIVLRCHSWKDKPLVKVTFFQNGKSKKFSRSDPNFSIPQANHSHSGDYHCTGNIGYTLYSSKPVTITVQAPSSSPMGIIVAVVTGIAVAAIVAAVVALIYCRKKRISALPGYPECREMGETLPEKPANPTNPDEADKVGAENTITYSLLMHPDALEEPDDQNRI

[5] = molecular target: T4, FcγR1 on engineered HEK293 cells (UniProt P12314 16-374); experiment: TR-FRET on FcγR-engineered HEK293 cells
T4 construct: whole, on cells; also called FcγR1 cell line
T4 sequence (P12314 16-374, change not shown): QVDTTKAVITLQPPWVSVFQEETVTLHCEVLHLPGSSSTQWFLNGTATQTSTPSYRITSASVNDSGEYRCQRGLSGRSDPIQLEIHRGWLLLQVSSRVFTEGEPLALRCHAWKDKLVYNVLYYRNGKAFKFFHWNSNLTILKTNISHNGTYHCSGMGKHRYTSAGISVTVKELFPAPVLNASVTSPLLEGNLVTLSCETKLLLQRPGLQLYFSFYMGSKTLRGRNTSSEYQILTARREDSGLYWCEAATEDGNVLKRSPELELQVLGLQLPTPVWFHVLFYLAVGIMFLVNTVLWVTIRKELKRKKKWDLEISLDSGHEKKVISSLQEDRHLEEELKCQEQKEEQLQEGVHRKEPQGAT

[6] = molecular target: T5, human CD47 extracellular domain (human, UniProt Q08722 19-139); experiment: SPR, human CD47 ECD
T5 construct: extracellular domain; also called human CD47 ECD; Hu CD47
T5 sequence (Q08722 19-139 limits assumed): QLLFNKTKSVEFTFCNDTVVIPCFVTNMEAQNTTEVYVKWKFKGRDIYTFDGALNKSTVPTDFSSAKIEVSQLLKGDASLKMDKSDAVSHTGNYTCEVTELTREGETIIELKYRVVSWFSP

[7] = molecular target: recombinant human fragment crystallizable gamma receptor (FcγR) family members tested; experiment: recombinant human FcγR proteins; method not stated
[8] = molecular target: T6, FcγR2A (R131) recombinant protein (human, UniProt P12318 34-217); experiment: recombinant protein, compared with control anti-RSV IgG1 antibody (p value 0.00019)
T6 sequence (looked up): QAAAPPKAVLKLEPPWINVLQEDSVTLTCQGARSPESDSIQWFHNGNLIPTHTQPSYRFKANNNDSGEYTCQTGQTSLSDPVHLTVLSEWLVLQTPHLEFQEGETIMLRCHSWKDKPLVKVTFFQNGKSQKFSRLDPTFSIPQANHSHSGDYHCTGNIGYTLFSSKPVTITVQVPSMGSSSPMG

[9] = molecular target: T5, human CD47 extracellular domain; experiment: SPR, human CD47 ECD; Example 4 SPR; earlier determination than the 2.32 µM of paragraph 95
[10] = molecular target: T7, FcγR2A (H131) recombinant protein (human, UniProt P12318 34-217); experiment: recombinant protein, compared with control anti-RSV IgG1 antibody (p value 0.0038)
T7 sequence (looked up): T6 sequence (looked up) with R134H

[11] = molecular target: FcγR3A (V176) recombinant protein (human, UniProt P08637 17-208); experiment: recombinant protein, compared with control anti-RSV IgG1 antibody (p value 0.0049)
FcγR3A (V176) recombinant protein, sequence (P08637 17-208 F176V): as the sequence (P08637 17-208) above, with F160V counted along it

[12] = molecular target: T5, human CD47 extracellular domain; experiment: SPR, extracellular domain of human CD47
[13] = molecular target: T8, cynomolgus CD47 extracellular domain (cynomolgus monkey, UniProt A0A2K5X523 19-141); experiment: SPR, cynomolgus CD47 ECD
T8 construct: also called cynomolgus CD47 ECD
T8 sequence (A0A2K5X523 entry or part of it limits assumed): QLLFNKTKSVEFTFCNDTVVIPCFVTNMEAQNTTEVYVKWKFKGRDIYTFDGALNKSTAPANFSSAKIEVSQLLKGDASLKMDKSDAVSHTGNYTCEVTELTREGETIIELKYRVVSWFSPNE

mouse CD47 = molecular target: T9, mouse CD47 (mouse, UniProt Q61735 19-140, limits assumed); experiment: SPR
T9 sequence (looked up): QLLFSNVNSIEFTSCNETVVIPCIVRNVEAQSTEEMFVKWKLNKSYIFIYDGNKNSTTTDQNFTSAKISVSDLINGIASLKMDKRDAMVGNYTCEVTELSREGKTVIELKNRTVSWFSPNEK

[14] = molecular target: T10, cynomolgus CD20 on B cells (cynomolgus monkey, UniProt M4ZHZ6 1-297); experiment: binding to cynomolgus macaque B cells
T10 construct: whole, on cells; also called cynomolgus macaque B cells
T10 sequence: T2 sequence (looked up) with S25P, F31L, T51A, A157V, K217R, N226S, I227V, T239V

human CD47 on cells [15] = molecular target: T1, human CD47 on cells; experiment: blocking of human SIRPα binding to OCI-Ly3 cells, SIRPα at saturating concentration, secondary antibody detection; competitor SIRPα (repeated in paragraph 145 as average EC50); OCI-Ly3 cells (CD20+/CD47+); blocking of SIRPα binding
human CD20 on cells = molecular target: T11, human CD20 on cells (human, UniProt P11836 1-297); experiment: binding to Raji cells (CD20+/CD47+), y axis MFI (the legend paragraph 44 says SPR)
T11 construct: whole, on cells; also called CD20 on Raji cells and human B cells
T11 sequence (looked up): T2 sequence (looked up)

[16] = molecular target: T8, cynomolgus CD47 extracellular domain; experiment: SPR, cynomolgus CD47

T1 sequence (Q08722 19-323): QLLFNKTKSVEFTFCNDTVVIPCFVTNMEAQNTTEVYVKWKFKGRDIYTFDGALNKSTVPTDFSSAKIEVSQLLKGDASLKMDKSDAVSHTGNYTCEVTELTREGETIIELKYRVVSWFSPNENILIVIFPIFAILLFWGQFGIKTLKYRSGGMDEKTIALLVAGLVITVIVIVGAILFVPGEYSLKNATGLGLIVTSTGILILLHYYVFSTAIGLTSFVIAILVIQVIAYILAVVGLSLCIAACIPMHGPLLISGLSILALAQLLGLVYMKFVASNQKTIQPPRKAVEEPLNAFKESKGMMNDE

B1: TPP-1360 (bispecific antibody, human IgG1, kappa)
light 1: NIQMTQSPSSLSASVGDRVTITCRASQDIHRYLSWFQQKPGKVPKHLIYRESRFVDGVPSRFSGSGSGTEFTLTISSLQPEDFATYYCLQYDEFPYTFGGGTKVEIKRTVAAPSVFIFPPSDEELKSGTASVVCWLNNFYPREAKVQWKVDNALQSGNSEESVTEQDSKDSTYSLSSTLELSKADYEKHKVYACEVTHQGLSSPVTKSFNRGEC
heavy 1: QMQLVQSGAEVKKPGSSVKVSCKASGFNIKDYYLHWVRQAPGKGLEWMGWIDPDQGDTYYAQKFQGRVTITRDRSTSTAYMELRSLRAEDTAVYYCNAAYGESSYPMDYWGQGTLVTVSSASTKGPSVFPLAPSSKSTSGGTAALGCLVKDYFPEPVTVSWNSGALTSGVHTFPAVLKSSGLYSLSSVVTVPSSSLGTQTYICNVNHKPSNTKVDKKVEPKSCDKTHTCPPCPAPELLGGPSVFLFPPKPKDTLMISRTPEVTCVVVDVSHEDPEVKFNWYVDGVEVHNAKTKPREEQYNSTYRVVSVLTVLHQDWLNGKEYKCKVSNKALPAPIEKTISKAKGQPREPQVYVLPPSREEMTKNQVSLLCLVKGFYPSDIAVEWESNGQPENNYLTWPPVLDSDGSFFLYSKLTVDKSRWQQGNVFSCSVMHEALHNHYTQKSLSLSPGK
light 2: QIVLSQSPAILSASPGEKVTMTCRASSSVSYIHWFQQKPGSSPKPWIYATSNLASGVPVRFSGSGSGTSYSLTISRVEAEDAATYYCQQWTSNPPTFGGGTKLEIKRTVAAPSVAIFPPSDERLKSGTASVVCVLNNFYPREAKVQWKVDNALQSGNSQESVTEQDSKDSTYSLSSRLTLSKADYEKHKVYACEVTHQGLSSPVTKSFNRGEC
heavy 2: QVQLQQPGAELVKPGASVKMSCKASGYTFTSYNMHWVKQTPGRGLEWIGAIYPGNGDTSYNQKFKGKATLTADKSSSTAYMQLSSLTSEDSAVYYCARSTYYGGDWYFNVWGAGTTVTVSAASTKGPSVFPLAPSSKSTSGGTAWLGCEVTDYFPEPVTVSWNSGALTSGVHTFPAVLESSGLYSLSSVVTVPSSSLGTQTYICNVNHKPSNTKVDKKVEPKSCDKTHTCPPCPAPELLGGPSVFLFPPKPKDTLMISRTPEVTCVVVDVSHEDPEVKFNWYVDGVEVHNAKTKPREEQYNSTYRVVSVLTVLHQDWLNGKEYKCKVSNKALPAPIEKTISKAKGQPREPQVYVYPPSREEMTKNQVSLTCLVKGFYPSDIAVEWESNGQPENNYKTTPPVLDSDGSFALVSKLTVDKSRWQQGNVFSCSVMHEALHNHYTQKSLSLSPGK
notes: also called CD47xCD20 bispecific; anti-CD47/anti-CD20 IgG1 1+1 heterodimer bispecific antibody
- EC50 of macrophage phagocytosis of OCI-Ly3 cells, OCI-Ly3 Mφ EC50 (µg/mL) REPEAT (human CD47 on cells [1]): 0.27 µg/mL
- binding result [2]: binds
- binding result (human CD20): binds
- EC50 (human CD47 on cells [3]): 1.64 nM
- binding result [4]: binds
- binding result [5]: binds
- fold decrease in affinity relative to the parental anti-CD47 binder [6]: ~350 fold
- Kd [7]: 0.04 to 1620 nM
- binding result [8]: binds
- Kd [9]: 1700 nM
- binding result [10]: binds
- binding result [11]: binds
- Kd [12]: 2320 nM
- Kd [13]: 4510 nM
- binding result (mouse CD47): no binding
- binding result [14]: binds
- EC50 (human CD47 on cells [15]): 1.3 nM
- binding result (human CD20 on cells): binds
- Kd [16]: 23000 nM
